In assay [1] the target is T1, EphA4 Fc (human EphA4 Fc, #CJ75, Novoprotein, or mouse EphA4 Fc, #641-A4, R&D Systems/BioTechne) (human or mouse, UniProt P54764 20-547).
T1 construct: extracellular domain; bought reagents; also called EphA4 extracellular domain fused to the Fc portion of an antibody; not shown: Fc portion of an antibody
The assay can be described thus: competition ELISA, inhibition of ephrin-A5 AP binding to immobilized EphA4 Fc. For orientation: In an ELISA, binding on a coated surface is turned into a signal by an enzyme label.

Assay [2] addresses T1, EphA4 Fc (human EphA4 Fc, #CJ75, …). The assay can be described thus: competition ELISA, inhibition of ephrin-A5 AP binding to immobilized EphA4 Fc, with 20 mg/ml BSA.
The target is the same in assay [3]. As to the kind of experiment: competition ELISA, ephrin-A5 AP on immobilized EphA4 Fc, with and without 20 mg/mL BSA.

Bridge positions count the residues as written; N and C are the ends. Square brackets hold non-standard residues; d marks the D form. Ends that are not written are not given here. βAla = NCCC(=O)O

As usually defined, the IC50 is the concentration that inhibits the measured activity by half.

T1 sequence (P54764 20-547): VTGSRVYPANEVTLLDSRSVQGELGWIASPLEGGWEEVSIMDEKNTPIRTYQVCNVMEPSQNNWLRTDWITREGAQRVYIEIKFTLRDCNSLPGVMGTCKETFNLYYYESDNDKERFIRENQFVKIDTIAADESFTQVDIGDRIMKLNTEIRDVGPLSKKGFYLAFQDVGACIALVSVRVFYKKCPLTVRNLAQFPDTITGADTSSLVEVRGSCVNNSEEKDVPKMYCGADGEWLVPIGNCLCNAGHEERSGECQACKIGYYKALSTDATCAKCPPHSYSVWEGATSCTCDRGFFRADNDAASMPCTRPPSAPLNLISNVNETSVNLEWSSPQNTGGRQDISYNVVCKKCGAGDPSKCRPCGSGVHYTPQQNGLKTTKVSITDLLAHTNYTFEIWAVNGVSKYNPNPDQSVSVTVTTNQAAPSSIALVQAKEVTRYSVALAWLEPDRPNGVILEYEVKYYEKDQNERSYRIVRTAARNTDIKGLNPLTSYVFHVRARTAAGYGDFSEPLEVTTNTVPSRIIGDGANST

B1: compound 21 (peptide)
peptide: [βAla]PYCVYR[βAla]SWSCRLIEDICLPRWGCLWEDD-NH2
modifications: disulfide 4-12, 19-25; N-terminus assumed
SMILES: CC[C@H](C)[C@H](NC(=O)[C@H](CC(C)C)NC(=O)[C@H](CCCNC(=N)N)NC(=O)[C@@H]1CSSC[C@H](NC(=O)[C@H](Cc2ccc(O)cc2)NC(=O)[C@@H]2CCCN2C(=O)CCN)C(=O)N[C@@H](C(C)C)C(=O)N[C@@H](Cc2ccc(O)cc2)C(=O)N[C@@H](CCCNC(=N)N)C(=O)NCCC(=O)N[C@@H](CO)C(=O)N[C@@H](Cc2c[nH]c3ccccc23)C(=O)N[C@@H](CO)C(=O)N1)C(=O)N[C@@H](CCC(=O)O)C(=O)N[C@@H](CC(=O)O)C(=O)N[C@H](C(=O)N[C@H]1CSSC[C@@H](C(=O)N[C@@H](CC(C)C)C(=O)N[C@@H](Cc2c[nH]c3ccccc23)C(=O)N[C@@H](CCC(=O)O)C(=O)N[C@@H](CC(=O)O)C(=O)N[C@@H](CC(=O)O)C(N)=O)NC(=O)CNC(=O)[C@H](Cc2c[nH]c3ccccc23)NC(=O)[C@H](CCCNC(=N)N)NC(=O)[C@@H]2CCCN2C(=O)[C@H](CC(C)C)NC1=O)[C@@H](C)CC
notes: also called peptide 21
For B1, the IC50 stood at 18 nM in assay [1] and 130 nM in assay [2]. The “fold decrease in potency with BSA against buffer” value in assay [3] was about 8 fold.

Values taken from US20260139007A1 (SANFORD BURNHAM PREBYS MEDICAL DISCOVERY INSTITUTE, published 2026).
